Results on one molecule are retold here after patent US20240245800A1, “HIGHLY SPECIFIC RABBIT SINGLE -DOMAIN ANTIBODIES FOR DRUG DELIVERY IN IMMUNOTHERAPY APPLICATIONS” (TECHNOPHAGE, INVESTIGAÇÃO E DESENVOLVIMENTO EM …, priority 2021, published 2024).

The subject of this assay is CLBL-1 cell extracts. The experiment in a line: ELISA screening of anti-cNHL VL sdAb clones. The note with it: clone supernatants, CLBL-1 extracts. In kind it is binding, canine. Here is the method:
After the phage display selection, in order to express and select the best anti-cNHL VL sdAbs, phagemid DNA derived from the in vivo output selection was cloned into a PT7-PL vector and transformed into an E. coli strain BL21. Then, individual clones were auto induced, and the supernatant tested in ELISA assays against CLBL-1 and Jurkat cell extracts. To select the best lead candidates, three parameters were evaluated: binding against cNHL, expression yields, and unspecific binding. […] After selection, to characterize the selected clones, the 43 best lead candidates were analysed by sanger sequencing (FIG. 6B). To get further insights of the enriched sequences during the in vivo phage display selection, we performed next generation sequencing (NGS) of the biopanning repertoires. NGS allows massive sequence analysis of the panning population, enabling a genomic assessment of the library diversity and frequency of each clone. Two samples were sequenced: biopanning from the CLBL-1 tumour models and initial immune VL sdAb cNHL library (FIG. 7). Upon bioinformatic analysis of the NGS data, we were able to determine the diversity of each sample and identify the most represented clones. A total of 34880 sequences were obtained for the biopanning from the CLBL-1 tumours. The NHL library obtained a total of 48864 sequences. The number of singletons, consisting of the sequences with a single occurrence, varied between samples, ranging from 76.8% in the library, and 33.3% in the in vivo biopanning from the CLBL-1. Through the comparison of the sequence prevalence between the biopannings and the library, we were able to verify that the number of occurrences in each sequence was higher in the biopanning clones. […] By comparing ELISA data, sanger sequencing and NGS analysis, the six best clones (A12, C8, C5, E1, E2, and B12) were produced and purified. Due to its binding characteristics and production properties, C5 sdAb clone was chosen to be thoroughly characterized and used in the development of the proposed ADC.
To express and select anti-NHL-sdAbs, phagemid DNA encoding selected anti-cNHL sdAbs was cloned into PT7-PL (PT7-peptide leader) vector and transformed into E. coli strain BL21. Individual colonies were inoculated in 100 μl of Super Broth (SB) medium containing Overnight Express™ Autoinduction System (Novagen®) and 100 μg/ml of ampicillin and incubated overnight at 30° C. Next day, 40 μl of BugBuster (Roche) containing anti-protease cocktail-EDTA free inhibitors (Roche) were added and incubated for 30 min at 4° C. Then, plates were centrifuged at 1200 rpm and the supernatant was tested in ELISA assays. Three different conditions were assessed: binding to the sdAbs to the antigen, expression level and unspecific binding. After coating the wells with CLBL-1 cell extracts or Raji cell extracts for 1 h at 37° C., wells were blocked with 3% BSA in PBS. Then, wells were washed with PBS and clones were added and incubated for 1 h, at 37° C. Next, plates were washed and incubated with anti-HA HRP antibody (Roche). Finally, after 1 h incubation, plates were washed and ABTS (Roche) was added and optical density at 405 nm was measured at different time points. To evaluate the expression level, the same protocol was applied, excluding antigen coating.
For unspecific binding, antigen was replaced by 3% BSA. Rabbit sera and anti-CD20 antibody were used as positive controls. BL21 cell extracts were used as negative controls. In the end, the ten best individual clones were sequenced at Eurofins company. Sequence analysis was performed using the Vector Nti software (Invitrogen). The antibody frameworks, CDRs and the amino acid numbering and sequences followed the rules described by Kabat et al. (1991) Sequences of proteins of immunological interest. Bethesda, MD, U.S. Dept. of Health and Human Services, Public Health Service, National Institutes of Health. […]
On the technique in general: ELISA stands for enzyme-linked immunosorbent assay.

B1: C5: rabbit derived anti-cNHL VL sdAb clone, SEQ. ID. 3; ^99mTc radiolabelled for biodistribution (antibody, listed as Oryctolagus cuniculus, V domains shown)
VL: ELDLTQTPSPVSASVGGTATINCQASQSVYNNYWWAWYQQRPGHPPKLLIYETSKLASGVPSRFKGSGSGTQFTLTIIDVQCDDAATYVCAGGYGTVIDNAFGGGTELEIL
modifications: 99mTc(CO)3 radiolabel
notes: ID; ^99mTc radiolabelled for biodistribution
Take B1: the “ELISA signal against NHL cells” value was “best results”.
